Data: article PMC6689051

Legend:
Conditions in all cases: 10 mM Tris-HCl pH 7.5, 50 mM KCl, 10 mM MgCl2 (10.1 mM MgCl2 + 0.1 mM EDTA), 23 C; nitrocellulose filter binding, 2 nM-2 uM Fab, 30 min
[1] = tested on: Fab HAVx (synthetic (phage display, humanized Fab4D5 framework, YSGRKX library; expressed in E. coli)), PDB:6MWN_2+PDB:6MWN_3; test: filter binding
[2] = tested on: best Fab clone from YSGR library (unnamed) (synthetic (phage display, humanized Fab4D5 framework; expressed in E. coli)); test: filter binding
P0 = test: method not stated in excerpt

| Substance | Kd [1] | Kd [2] | Kd (P0) |
| --- | --- | --- | --- |
| GGCAAACAUCAUUUGGCCUUAAAUGGGAUUCUGUGAGACGGGAUCCCUCCAUUGACAGCUGGACUGUUCUUUGGGGCCUUAUGUGGUGUUUG [HAV dV G631C] | 0.058 µM |  |  |
| GGCAAACAUCAUUUGGCCUUAAAUGGGAUUCUGUGAGAGGGGAUCCCUCCAUUGACAGCUGGACUGUUCUUUGGGGCCUAUGUGGUGUUUG [HAV dV delU674] | 0.176 µM |  |  |
| GGCAAACAUCAUUUGGCCUUAAAUGGGAUUCUGUGAGAGGGGAUCCCUCCAUUGACAGCUGGACUGUUCUUUGGGGCCUUAGUGGUGUUUG [HAV dV delU672] | > 1 µM |  |  |
| GGCAAACAUCAUUUGGCCUUAAAUGGGAUUCUGUGAGAGGGGAUCCCUCCAUUGACAGCUGGACUGUUCUUUGGGGCCUUAUGUGGUGUUUG [HAV dV (HAV593-684)] | 0.044 µM | 0.29 µM | 0.22 µM |
| HAV593-706 | 0.049 µM |  |  |
| HAV593-720 | 0.047 µM |  |  |
